The target of the assay is β-1,3-glucanase (Hevea brasiliensis (endogenous in latex …, UniProt P52407 37-356)). Briefly: SPR. (In SPR one partner is held on a chip, and binding of the other changes the refractive index at the surface.)
Chain of β-1,3-glucanase (Hevea brasiliensis (P52407 37-356): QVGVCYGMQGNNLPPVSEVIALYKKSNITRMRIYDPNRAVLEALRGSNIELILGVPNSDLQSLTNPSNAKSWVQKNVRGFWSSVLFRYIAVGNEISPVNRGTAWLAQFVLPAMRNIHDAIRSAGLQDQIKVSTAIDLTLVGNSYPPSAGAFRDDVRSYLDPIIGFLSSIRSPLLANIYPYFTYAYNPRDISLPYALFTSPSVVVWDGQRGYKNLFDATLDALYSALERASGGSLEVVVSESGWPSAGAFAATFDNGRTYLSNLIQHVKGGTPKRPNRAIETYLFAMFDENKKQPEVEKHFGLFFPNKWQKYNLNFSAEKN

B1: pro-hevein (natural protein)
chain: EQCGRQAGGKLCPNNLCCSQWGWCGSTDEYCSPDHNCQSNCKDSGEGVGGGSASNVLATYHLYNSQDHGWDLNAASAYCSTWDANKPYSWRSKYGWTAFCGPVGAHGQSSCGKCLSVTNTGTGAKTTVRIVDQCSNGGLDLDVNVFRQLDTDGKGYERGHITVNYQFVDCGDSFNPLFSVMKSSVIN
For orientation: koff means the rate constant with which the complex falls apart. Low values mean a long-lived complex, high ones a short-lived complex. In turn, B1 came in with a koff of 0.0794 s⁻¹.

B2: hevein (natural protein)
chain: EQCGRQAGGKLCPNNLCCSQWGWCGSTDEYCSPDHNCQSNCKD
B2 gave a koff of 0.013 s⁻¹.

The values are drawn from article PMC6322289 (2019).
